Reference: US20180021429A1, “ANTICANCER AGENTS OR ANTIMETASTATIC AGENTS USING FSTL1 AND COMBINATION DRUG THEREOF” (PHARMA FOODS INTERNATIONAL CO., LTD., priority 2015, published 2018)
Substitutions are numbered along the chain they refer to. Entries after “also recorded” stand apart in the source; their conditions may differ.

B1: #33: chicken-mouse chimeric anti-FSTL1 antibody clone; variable regions SEQ ID NO: 823 (light), 825 (heavy) (antibody, V domains shown)
VH: AVTLDESGGGLQTPGGGLSLVCKASGFTFSSFNMNWVRQAPGKGLEYVAEISGTGSSTYYGSAVKGRATISRDNGQSTVRLQLNNLRAEDTATYFCARGDGAYSIDAWGHGTEVIVSS
VL: ASTQPSSVSANPGETVEITCSGDSSYYGWFQQKSPGSAPVTVIYDNTNRPSDIPSRFSGSKSGSTATLTITGVRAEDEAVYYCGGYDSSTYDGIFGAGTTLTVL
modifications: mouse constant regions
B2: #6-55: chicken-mouse chimeric anti-FSTL1 antibody clone; variable regions SEQ ID NO: 783 (light), 785 (heavy) (antibody, V domains shown)
VH: AVTLDESGGGLQTPGGALSLVCKGSGFTFTSVTMQWVRQAPGKGLEWVASVCSGSSTYYAPAVKGRATISRDNGQSTVRLQLSNLRPEDTGTYYCAKIAGRARWSCTSAAYNIDAWGHGTEVIVSS
VL: ASTQPSSVSAIPGETVKITCSGGGNNYGWYQQRSPGSAPVTVIYYNDNRPSNIPSRFSGSTSGSTSTLTITGVQADDEAIYYCGSWDSNTDSGIFGAGTTLTVL
modifications: mouse constant regions
B3: #7-34: chicken-mouse chimeric anti-FSTL1 antibody clone; variable regions SEQ ID NO: 787 (light), 789 (heavy) (antibody, V domains shown)
VH: AVTLDESGGGLQTPGGGLSLVCKASGFTFSSVTMQWVRQAPGKGLEWVASICSGSSTYYGPAVKGRATISRDNGQNTVRLQLNNLRAEDTATYYCAKIVGRGRWSCTSAAYNIDAWGHGTEVIVSS
VL: B2 VL with I11N, R33K, D47N, D76E, I80V, W86Y, D87E, S88G, N89S
modifications: mouse constant regions
B4: #5-8: chicken-mouse chimeric anti-FSTL1 antibody clone; variable regions SEQ ID NO: 771 (light), 773 (heavy) (antibody, V domains shown)
VH: AVTLDESGGGLQTPGGGLSLVCKGSGFTFSSFNMFWVRQAPGKGLEWVAGIGKDGVPKYGTAVDGRATISKDNGQSTMRLQLNNLRAEDTGTYFCAKAAGGCSYDWCGIYTGDIDTWGHGTEVIVSS
VL: ASTQPSSVSANPGEAVKITCSGGSGSYYGWYQQKSPGSAPVTVIYNNNQRPSDIPSRFSGSKSGSTATLTITGVQAEDEAVYFCGGYDSSTGHGGIFGAGTTLTVL
modifications: mouse constant regions
B5: #13: chicken-mouse chimeric anti-FSTL1 antibody clone; variable regions SEQ ID NO: 815 (light), 817 (heavy) (antibody, V domains shown)
VH: B3 VH
VL: ASTQPSSVSANPGETVKITCSGGGNNYGWYQQKSPGSAPVTVIYNNNNRPSNIPSRFSGSKSGSTNTLTITGVQAEDEAVYYCGSYDSSSDSGIFGAGTTLTVL
modifications: mouse constant regions

Columns and labels:
[1] = test system: GFP+F10-snail+ tumor cells; assay: In vivo drug efficacy of each anti-FSTL1 antibody clone, Snail+ tumor bone metastasis model (Example 32); parameters: species or system mouse; conditions: intraperitoneal 10 mg/kg on days 4 and 7; for mouse survival period (life-prolonging effect): FIG. 27; for suppressive activity against subcutaneous tumor growth: FIG. 26, vs control antibody
Method: • Day 0: transplantation of GFP+F10-snail+ tumor cells (3×10^5 cells subcutaneously & 2×10^4 cells intravenously) • Day 4: intraperitoneal administration of the antibody (first dose, 10 mg/kg) • Day 7: intraperitoneal administration of the antibody (second dose, 10 mg/kg)
Subcutaneous tumor was measured 4, 7, 10, 14, 17, 20, and 23 days after tumor cell transplantation.

FSTL1 [2] = target: T1, FSTL1 (Homo sapiens, UniProt Q12841); assay: Affinity of mouse chimeric antibodies for human FSTL1, Biacore T-200 (Example 33); type: binding
T1 sequence (Q12841 21-308): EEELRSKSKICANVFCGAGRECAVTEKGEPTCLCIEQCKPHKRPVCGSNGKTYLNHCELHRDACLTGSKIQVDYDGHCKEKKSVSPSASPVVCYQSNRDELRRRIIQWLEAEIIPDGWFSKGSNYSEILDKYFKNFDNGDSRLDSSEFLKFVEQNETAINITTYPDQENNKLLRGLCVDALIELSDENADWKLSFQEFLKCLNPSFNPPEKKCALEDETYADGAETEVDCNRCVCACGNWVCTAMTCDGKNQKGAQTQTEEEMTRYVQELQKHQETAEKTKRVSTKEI
Method: The mouse chimeric antibodies were immobilized onto Sensor Chip CM5 (GE Healthcare Japan Corp., BR-1005-30) using Mouse Antibody Capture Kit (GE Healthcare Japan Corp., BR-1008-38), and their affinity for human FSTL1 was calculated using Biacore T-200 (GE Healthcare Japan Corp.).
First, the exhaustive activity comparison of the obtained antibodies was conducted with the human FSTL1 concentration fixed to 10 μg/ml (Table 33-1, FIG. 58).
Next, the KD values of clone #6-55, #7-34, and #13 presumed to have high affinity in FIG. 58 were calculated with the antigen concentration adjusted to 0 to 20 μg/ml (Table 35-2).
First, the exhaustive activity comparison of the obtained antibodies was conducted with the human FSTL1 concentration fixed to 10 μg/ml (Table 33-1, FIG. 90).
Next, the KD values of clone #6-55, #7-34, and #13 presumed to have high affinity in FIG. 90 were calculated with the antigen concentration adjusted to 0 to 20 μg/ml (Table 35-2).

FSTL1 [3] = target: T1, FSTL1; assay: Inhibition of induction of MSCs, cancer-associated MSCs and M-MDSCs by FSTL1 in mouse bone marrow cells (Examples 13 to 15); type: cell-based; parameters: purchased R&D Systems, Inc. 1694-FN-050
Method: The antibody clone (#6-55, #7, […], #13, or #22) was evaluated for its activity by the same testing method as in Example 13. #6-55 was set as a positive control for activity. […] Mouse bone marrow cells were supplemented with FSTL1 and the predetermined concentration of each antibody and cultured for 8 days. 5×10^4 cells/well were separated from each culture system and evaluated for the ability to differentiate into adipocytes using an adipocyte differentiation reagent included in “Mesenchymal Stem Cell Functional Identification Kit (R&D Systems, Inc., Cat. No. SCO10)”. For the evaluation method, the cells were supplemented with the adipocyte differentiation reagent and cultured for 8 days. Then, adipocytes per culture system were counted under a microscope for evaluation. In the graph, none is depicted in the leftmost bar, and the control antibody is depicted in the second bar from the left followed by the anti-FSLT1 antibody clones. Adipocytes were not confirmed for any of the anti-FSLT1 antibodies. It is understood that the differentiation induction of MSCs serving as the original source is inhibited.
Mouse bone marrow cells (bone marrow cells prepared in the same way as in Example 4) were supplemented with 20 ng/mL (final concentration) of FSTL1 and 20.0, 10.0, 5.0, or 2.5 μg/ml (final concentration) of the rat anti-FSTL1 antibody or #6-55. Also, mouse bone marrow cells were supplemented with 20.0 μg/ml (final concentration) each of their respective control antibodies, a rat IgG2b isotype control (R&D Systems, Inc., Cat. No. MAB0061, clone 141945) and an anti-DNP antibody. The cells were cultured for 8 days, and the inhibitory activity of each antibody against the induction of MSCs, cancer-associated MSCs, and M-MDSCs by FSTL1 was evaluated in the same way as in Example 13 (FIG. 40A). […] The inhibition of regulatory T cells shown in Patent Literature 1 (WO2009/028411) is presumably a consequence mediated by the inhibition of MSC induction. […]

FSTL1 [4] = target: T1, FSTL1; assay: Inhibition of activation of tumor cells by FSTL1, RANKL- and CCR2-positive cells in human pancreatic cancer cell line Panc1 (Examples 5, 7, 9, 10, 11); type: cell-based; parameters: purchased R&D Systems, Inc. 1694-FN-050; conditions: Example 9; FSTL1 20 ng/mL, antibody 10 μg/mL, 3 days
[5] = Example 14, #6-55 as positive control

Molecule | mouse survival period (life-prolonging effect) [1] | affinity in an assay system using surface plasmon resonance (FSTL1 [2]) | inhibitory activity against the induction of MSCs, cancer-associated MSCs, and M-MDSCs by FSTL1 (FSTL1 [3]; [5]) | suppressive activity against subcutaneous tumor growth [1] | inhibitory activity against the expansion of RANKL-positive cells and CCR2-positive cells (FSTL1 [4]) | inhibitory activity against the induction of MSCs, cancer-associated MSCs, and M-MDSCs by FSTL1 (FSTL1 [3]; Example 15, FSTL1 20 ng/mL, antibody 20.0, 10.0, 5.0, or 2.5 μg/ml, dose dependence not confirmed)
B1 | therapeutic effects equal to or higher than those of #6-55 | strong affinity | inhibitory activity equivalent to or higher than that of the positive control | – | – | –
B2 | statistically significant life-prolonging effect | strong affinity | – | statistically significant suppressive activity | higher inhibitory activity; also recorded: exhibited inhibitory activity | at the same level; also recorded: slightly superior
B3 | – | strong affinity | – | – | – | –
B4 | – | – | – | – | higher inhibitory activity; also recorded: exhibited inhibitory activity | –
B5 | – | strong affinity | inhibitory activity equivalent to or higher than that of the positive control | all of the clones except for #13 exhibited statistically significant suppressive activity | – | –
